Test results from publication PMC6006169, “Conformational switching in the coiled-coil domains of a proteasomal ATPase regulates substrate processing” (Nature Communications, 2018).
Positions count from the first letter of the chain named. In names and notes the source's numbering stands.

Columns and labels:
[1] = molecular target: T1, PAN (proteasome-activating nucleotidase) (Methanocaldococcus jannaschii, UniProt Q58576, L73C/M87C); assay: NADH-coupled ATP regenerating ATPase assay ([…] nm); format: biochemical; conditions: oxidized (tetrathionate): coiled-coil disulfide crosslinked C1 and C3, no saturation with ATP; pH 7.5, 37 °C, 20 mM MgCl2; original residue 73 not given
T1 construct: full-length, pRSETA, E. coli BL21(DE3)-RIL, heat precipitation, anion exchange and size exclusion; no tag mentioned; homohexamer

[2] = molecular target: CC-OB domain fragment of PAN-M87C (subcomplex I) (Methanococcus jannaschii); assay: cross-linking; PAN-M87C after partial trypsin proteolysis and gel filtration (Superose 12); fractions 1 and 3 in 1 mM tetrathionate 1 h at room temperature, desalted, non-reducing SDS-PAGE, silver stain
[3] = molecular target: the molecule itself; assay: cross-linking; disulfide cross-linking of engineered cysteines; 1 mM tetrathionate, 1-2 h, room temperature, 50 mM Tris pH 7.5 + 5% glycerol, no nucleotide, PAN at or below 0.25 mg/ml; desalted on G50, non-reducing SDS-PAGE, Coomassie, densitometry of monomers vs. dimers
[4] = substrate: Nc1ncnc2c1ncn2[C@@H]1O[C@H](COP(=O)(O)OP(=O)(O)OP(=O)(O)O)[C@@H](O)[C@H]1O; assay: purified protein; format: biochemical, Methanocaldococcus jannaschii; conditions: reduced (uncrosslinked), pH 7.5, 37 °C
[5] = molecular target: the molecule itself; assay: native gel or EMSA; native-PAGE of oxidized PAN cysteine mutants

T1 sequence (Q58576 whole entry L73C/M87C): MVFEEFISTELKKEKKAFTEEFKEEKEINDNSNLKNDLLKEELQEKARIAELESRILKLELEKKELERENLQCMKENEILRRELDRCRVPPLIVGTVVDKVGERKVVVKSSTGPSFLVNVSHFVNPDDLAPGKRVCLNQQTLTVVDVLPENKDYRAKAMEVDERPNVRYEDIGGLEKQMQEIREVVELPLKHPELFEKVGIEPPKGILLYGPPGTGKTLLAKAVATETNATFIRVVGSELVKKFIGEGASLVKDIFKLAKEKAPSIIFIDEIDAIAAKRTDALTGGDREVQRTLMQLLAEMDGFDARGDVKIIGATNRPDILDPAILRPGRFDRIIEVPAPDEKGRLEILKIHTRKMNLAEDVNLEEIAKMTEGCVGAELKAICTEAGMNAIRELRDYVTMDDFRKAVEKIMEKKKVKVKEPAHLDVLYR

For `Nc1ncnc2c1ncn2[C@@H]1O[C@H](COP(=O)(O)OP(=O)(O)OP(=O)(O)O)[C@@H](O)[C@H]1O` [ATP], which Km [1] is on record?
Its Km is greater than 3000 µM.

With “CC-OB domain fragment of PAN-M87C (subcomplex I) (domain or fragment)” as the molecule, how does the percent cross-linked dimers [2] read?
The percent cross-linked dimers was 100%.

B1: PAN 59C (enzyme, Methanococcus jannaschii, UniProt Q58576 1-430, looked up)
chain: MVFEEFISTELKKEKKAFTEEFKEEKEINDNSNLKNDLLKEELQEKARIAELESRILKCELEKKELERENLQLMKENEILRRELDRMRVPPLIVGTVVDKVGERKVVVKSSTGPSFLVNVSHFVNPDDLAPGKRVCLNQQTLTVVDVLPENKDYRAKAMEVDERPNVRYEDIGGLEKQMQEIREVVELPLKHPELFEKVGIEPPKGILLYGPPGTGKTLLAKAVATETNATFIRVVGSELVKKFIGEGASLVKDIFKLAKEKAPSIIFIDEIDAIAAKRTDALTGGDREVQRTLMQLLAEMDGFDARGDVKIIGATNRPDILDPAILRPGRFDRIIEVPAPDEKGRLEILKIHTRKMNLAEDVNLEEIAKMTEGCVGAELKAICTEAGMNAIRELRDYVTMDDFRKAVEKIMEKKKVKVKEPAHLDVLYR
notes: Expressed from pRSETA; no tag named; source: E. coli BL21-DE3-RIL, purified (heat precipitation, anion exchange, size exclusion)
How did the percent cross-linked [3] turn out when B1 was run?
The percent cross-linked was 69%.

What about the Km ([4]; 20 mM MgCl2, original residue 59 not given) of the same molecule?
Its Km is 436 ± 29 µM.

B2: PAN (proteasome-activating nucleotidase) (Methanocaldococcus jannaschii DSM 2661; L59C/L73C/M87C) (protein)
chain: B1 chain with L73C, M87C
notes: full-length, pRSETA, E. coli BL21(DE3)-RIL, heat precipitation, anion exchange and size exclusion; no tag mentioned; homohexamer
How did the Km ([4]; 20 mM MgCl2, original residues 73 and 59 not given) turn out when B2 was run?
The Km was 580 ± 64 µM.

B3: PAN 80C (enzyme, Methanococcus jannaschii, UniProt Q58576 1-430, looked up)
chain: B1 chain with C59L, L80C
notes: as for B1
Does B3 bind [3]?
Result: binds

B4: PAN 73C (enzyme, Methanococcus jannaschii, UniProt Q58576 1-430, looked up)
chain: B1 chain with C59L, L73C
notes: as for B1
Does B4 bind [3]?
Result: binds

B5: PAN 66C (enzyme, Methanococcus jannaschii, UniProt Q58576 1-430, looked up)
chain: B1 chain with C59L, L66C
notes: as for B1
Does B5 bind [3]?
Result: binds

B6: PAN 87+80C (enzyme, Methanococcus jannaschii, UniProt Q58576 1-430, looked up)
chain: B1 chain with C59L, L80C, M87C
notes: as for B1
Does B6 bind [3]?
Result: binds

B7: PAN 80+73C (enzyme, Methanococcus jannaschii, UniProt Q58576 1-430, looked up)
chain: B1 chain with C59L, L73C, L80C
notes: as for B1
Does B7 bind [3]?
Result: binds

B8: PAN 73+66C (enzyme, Methanococcus jannaschii, UniProt Q58576 1-430, looked up)
chain: B1 chain with C59L, L66C, L73C
notes: as for B1
Does B8 bind [3]?
Result: binds

B9: PAN 80+66C (enzyme, Methanococcus jannaschii, UniProt Q58576 1-430, looked up)
chain: B1 chain with C59L, L66C, L80C
notes: as for B1
How did the percent cross-linked [3] turn out when B9 was run?
Its percent cross-linked is 72%.

And the “stoichiometry N” value [5]?
The value was 6.

B10: PAN 80+59C (enzyme, Methanococcus jannaschii, UniProt Q58576 1-430, looked up)
chain: B1 chain with L80C
notes: as for B1
Does B10 bind [3]?
Result: binds

B11: PAN-M87C (proteasome-activating nucleotidase, M87C mutant) (enzyme, Methanococcus jannaschii, UniProt Q58576 1-430, looked up)
chain: B1 chain with C59L, M87C
notes: Expressed from pRSETA; The fraction F1 after partial trypsin proteolysis is called full-length or near full length; also called PAN-87C; M87C PAN; source: E. coli BL21-DE3-RIL, purified (heat precipitation, anion exchange, size exclusion)
B11 was tested. Which “stoichiometry N” value [5] did it give?
The value was 6.

B12: PAN 87+59C (enzyme, Methanococcus jannaschii, UniProt Q58576 1-430, looked up)
chain: B1 chain with M87C
notes: as for B1
Does B12 bind [3]?
Result: binds

B13: PAN 87+73C (enzyme, Methanococcus jannaschii, UniProt Q58576 1-430, looked up)
chain: B1 chain with C59L, L73C, M87C
notes: Expressed from pRSETA; no tag named; also called PAN 87C+73C; source: E. coli BL21-DE3-RIL, purified (heat precipitation, anion exchange, size exclusion)
For B13, which “stoichiometry N” value [5] is on record?
The value was 6.

B14: PAN 87+73+59C triple mutant (enzyme, Methanococcus jannaschii, UniProt Q58576 1-430, looked up)
chain: B1 chain with L73C, M87C
notes: Expressed from pRSETA; no tag named; also called PAN 87C+73C+59C; source: E. coli BL21-DE3-RIL, purified (heat precipitation, anion exchange, size exclusion)
Which percent cross-linked [3] does the source give for B14 here?
Its percent cross-linked is 74%.
